Target: the molecule itself
Test: small-angle X-ray scattering (SAXS); 50 mM sodium phosphate buffer pH 7.0, 36 (legend: 35) and 8 µM protein, 25 °C; gyration radius compared with that calculated for the hexamer of PDB 1KNX

B1: histidine phosphocarrier protein (HPr) kinase/phosphorylase of Bacillus subtilis (enzyme, UniProt O34483 1-310, looked up)
chain: MAKVRTKDVMEQFNLELISGEEGINRPITMSDLSRPGIEIAGYFTYYPRERVQLLGKTELSFFEQLPEEEKKQRMDSLCTDVTPAIILSRDMPIPQELIDASEKNGVPVLRSPLKTTRLSSRLTNFLESRLAPTTAIHGVLVDIYGVGVLITGKSGVGKSETALELVKRGHRLVADDCVEIRQEDQDTLVGNAPELIEHLLEIRGLGIINVMTLFGAGAVRSNKRITIVMNLELWEQGKQYDRLGLEEETMKIIDTEITKLTIPVRPGRNLAVIIEVAAMNFRLKRMGLNAAEQFTNKLADVIEDGEQEE
notes: HPr kinase/phosphorylase (HPrK/P) of Bacillus subtilis; theoretical molecular weight 36.6 kDa including the His-tag; Vector was a gift from Dr. A. Galinier; Oligomeric state depends on the buffer: monomer in pure water (DLS), mainly hexamer in 50 mM sodium phosphate pH 7.0; also called bsHPrK/P; HPrK/P; source: E. coli BL21 (DE3), purified (Ni-resin, Superdex 200 gel filtration), dialysed against …
stoichiometry N: 6

Reference: article PMC8004850, “The Histidine Phosphocarrier Kinase/Phosphorylase from Bacillus Subtilis Is an Oligomer in Solution with a High Thermal Stability” (International Journal of Molecular Sciences, 2021)
